Source: patent US10538802B2, “Polypeptide substrate for the detection of von Williebrand factor cleaving protease ADAMTS13” (IMMUCOR GTI DIAGNOSTICS, INC., priority 2011, dated 2020)

Molecular target: T1, ADAMTS13 (Homo sapiens, UniProt Q76LX8)
T1 construct: tissue Gen-Probe GTI Diagnostics (ATS-13 kit calibrators, controls and proficiency samples); George King Biomedical Inc. (FACT, A-FACT, B-FACT plasmas) ATS-13; host or cells: plasma
T1 sequence (Q76LX8 75-1427): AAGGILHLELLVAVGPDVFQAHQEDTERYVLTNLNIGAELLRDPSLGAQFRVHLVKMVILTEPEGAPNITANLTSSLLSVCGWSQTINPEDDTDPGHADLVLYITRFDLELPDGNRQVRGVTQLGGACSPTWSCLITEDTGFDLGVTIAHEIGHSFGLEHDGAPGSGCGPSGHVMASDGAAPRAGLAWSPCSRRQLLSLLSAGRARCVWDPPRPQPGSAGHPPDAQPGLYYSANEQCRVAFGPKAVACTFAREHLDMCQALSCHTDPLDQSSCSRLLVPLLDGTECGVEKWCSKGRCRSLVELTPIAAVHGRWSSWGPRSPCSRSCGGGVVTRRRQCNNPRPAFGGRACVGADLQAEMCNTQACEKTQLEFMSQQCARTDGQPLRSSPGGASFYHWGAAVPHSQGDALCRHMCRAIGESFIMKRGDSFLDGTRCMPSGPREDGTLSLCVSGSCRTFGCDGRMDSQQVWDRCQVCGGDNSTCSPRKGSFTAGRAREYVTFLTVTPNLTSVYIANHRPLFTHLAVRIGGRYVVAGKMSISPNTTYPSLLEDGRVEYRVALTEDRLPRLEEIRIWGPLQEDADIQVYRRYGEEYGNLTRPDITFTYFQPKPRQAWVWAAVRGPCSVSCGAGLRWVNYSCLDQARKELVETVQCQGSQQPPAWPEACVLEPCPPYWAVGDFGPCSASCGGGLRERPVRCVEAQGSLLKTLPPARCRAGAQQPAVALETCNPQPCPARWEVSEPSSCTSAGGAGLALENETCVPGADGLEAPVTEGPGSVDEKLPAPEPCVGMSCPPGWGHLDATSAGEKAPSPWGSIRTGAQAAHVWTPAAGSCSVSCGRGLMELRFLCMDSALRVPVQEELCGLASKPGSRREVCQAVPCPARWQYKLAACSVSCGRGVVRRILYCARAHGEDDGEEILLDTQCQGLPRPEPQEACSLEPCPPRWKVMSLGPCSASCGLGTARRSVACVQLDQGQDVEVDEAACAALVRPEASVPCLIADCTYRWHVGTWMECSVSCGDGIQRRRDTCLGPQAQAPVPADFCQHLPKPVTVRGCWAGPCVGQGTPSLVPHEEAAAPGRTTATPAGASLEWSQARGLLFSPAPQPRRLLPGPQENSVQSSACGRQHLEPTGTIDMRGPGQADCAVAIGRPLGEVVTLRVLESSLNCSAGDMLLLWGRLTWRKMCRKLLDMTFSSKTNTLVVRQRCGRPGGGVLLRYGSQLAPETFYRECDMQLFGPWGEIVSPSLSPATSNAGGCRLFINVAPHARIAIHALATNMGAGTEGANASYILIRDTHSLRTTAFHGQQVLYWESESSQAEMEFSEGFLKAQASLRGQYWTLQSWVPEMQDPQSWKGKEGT
Assay: ADAMTS13 activity assay with fluorogenic (FRET) polypeptide substrate and diluted plasma samples
Format: biochemical
Details: for % Normal ADAMTS13 Activity: 30 Minute Incubation Time: Table 5
Description: The procedure in this example was performed substantially as described in Kokame, K., Y. Nobe, Y. Kokubo, A. Okayama, and T. Miyata. 2005. FRETS-VWF73, a first fluorogenic substrate for ADAMTS13 assay. Br. J. Haematol. 129:93-100, but using SEQ ID NO: 1 in place of the 73 amino acid substrate described therein. The FRETS-VWF73 substrate solution was dissolved in 25% dimethyl sulphoxide/water to prepare the 100 microM stock solution. The GTI FRET4 SEQ ID NO: 1 was dissolved in 100% DMSO. Both substrates were diluted to equal concentrations using ATS-13 substrate buffer (Gen-Probe GT1 Diagnostics, Inc., U.S.A., Cat#ATS-13).
Plasma samples were diluted according to the ATS-13 Direction Insert using ATS-13 specimen diluent (Gen-Probe GTI Diagnostics, Inc., U.S.A., Cat# ATS-13). The diluted plasma samples were mixed with the diluted substrate and the fluorescence was read at 0, 5, 10, 15, 20, 30, 45 minutes using a Biotek FLX800 at the appropriate excitation and emission wavelengths for each substrate.
The fluorophore-quencher pair in the SEQ ID NO: 1 polypeptide substrate is FAM-5/TQ 2^Tm (Ex 485±20; Em 528±20; AAT Bioquest, Inc. Sunnyvale, Calif. U.S.A.). The fluorophore and quencher pair of FRETS-VWF73 (Nma/Dnp) described in Kokame has been substituted with FAM-5 and TQ_2 respectively in GTI_FRET4 SEQ ID NO: 1. Furthermore, in the SEQ ID NO: 1 polypeptide the position of the fluorophore (FAM-5) and quencher (TQ_2) has been swapped relative to the position of the fluorophore and quencher of the FRETS-VWF73 construct. Therefore, for GTI_FRET4 SEQ ID NO: 1, attachment of the fluorophore (FAM-5) occurs by substituting asparagine with cystine at position 15. The quencher (TQ_2) was attached by substituting glutamine with lysine at position 4 (FIG. 2 and Table 4).
For this experiment, substrate concentration and fluorescence reader settings determined on the previous experiment are used. The specimens tested (listed in Table 3), include a panel of proficiency samples prepared for use with ATS-13 (Gen-Probe GTI Diagnostics, Inc., U.S.A., Cat# ATS-13) which included samples with normal or deficient ADAMTS13 activity levels. In addition, six Factor Assay ConTrol plasma were used (2 FACT, 2 A-FACT and 2 B-FACT, from George King Biomedical Inc., Kansas, USA). The assays for the SEQ ID NO: 1 substrate and for the prior art FRETS-VWF73 assay were performed generally as according to the procedure described in Example 1. Substrate is prepared according to the conditions used for initial testing of the substrate, which prepared the molar amount of SEQ ID NO: 1 polypeptide substrate used in the assay to be equivalent to the molar amount of FRETS-VWF73 used in the prior art. The […] assays were read at 0, 5, 10, 15, 20, 30, 45 minutes.
Testing of substrate for cleavability by ADAMTS13 is determined as is generally described in Example 1. […]

## DREKAPNLVYMVTGCPASDEIKRLPGDIQVVPIEVIGWPNAPILIQDEETLPREAPDLVLQR [GTI_FRET4]
  time through which the calibration curve continued to be linear: ≤ 45 min
  trend line of the calibration curve: linear
Example 1
  time at which the calculated % N ADAMTS13 activity plateaus: 30 min
Example 1, at 30 minutes
  difference between Calibrator A (0% ADAMTS13 activity) and Calibrator E (100% ADAMTS13 activity), dynamic range: approximately 34,000 RFU
Example 2, at 30 minutes
  difference between Calibrator A and E, dynamic range: approximately 35000 RFU
Sample 5 (ATS13-5)
  % Normal ADAMTS13 Activity: 30 Minute Incubation Time: 7 % Normal
Sample 22 (ATS13-4)
  % Normal ADAMTS13 Activity: 30 Minute Incubation Time: 21 % Normal
Sample 50 (ATS13-3)
  % Normal ADAMTS13 Activity: 30 Minute Incubation Time: 47 % Normal
Sample 72 (ATS13-2)
  % Normal ADAMTS13 Activity: 30 Minute Incubation Time: 72 % Normal
Sample 90 (ATS13-1)
  % Normal ADAMTS13 Activity: 30 Minute Incubation Time: 92 % Normal
Sample A-FACT lot 900
  % Normal ADAMTS13 Activity: 30 Minute Incubation Time: 10 % Normal
Sample A-FACT lot 1284
  % Normal ADAMTS13 Activity: 30 Minute Incubation Time: 10 % Normal
Sample B-FACT lot 1114
  % Normal ADAMTS13 Activity: 30 Minute Incubation Time: 45 % Normal
Sample B-FACT lot 1266
  % Normal ADAMTS13 Activity: 30 Minute Incubation Time: 46 % Normal
Sample BCM2
  % Normal ADAMTS13 Activity: 30 Minute Incubation Time: 19 % Normal
Sample BCM2 HI
  % Normal ADAMTS13 Activity: 30 Minute Incubation Time: 12 % Normal
Sample BCM2 mixed
  % Normal ADAMTS13 Activity: 30 Minute Incubation Time: 51 % Normal
Sample CNTL
  % Normal ADAMTS13 Activity: 30 Minute Incubation Time: <Calibrator A
Sample CNTL HI
  % Normal ADAMTS13 Activity: 30 Minute Incubation Time: <Calibrator A
Sample CNTL mixed
  % Normal ADAMTS13 Activity: 30 Minute Incubation Time: 4 % Normal
Sample Calibrator A
  % Normal ADAMTS13 Activity: 30 Minute Incubation Time: 4 % Normal
Sample Calibrator B
  % Normal ADAMTS13 Activity: 30 Minute Incubation Time: 9 % Normal
Sample Calibrator C
  % Normal ADAMTS13 Activity: 30 Minute Incubation Time: 29 % Normal
Sample Calibrator D
  % Normal ADAMTS13 Activity: 30 Minute Incubation Time: 61 % Normal
Sample Calibrator E
  % Normal ADAMTS13 Activity: 30 Minute Incubation Time: 110 % Normal
Sample FACT lot 222e1
  % Normal ADAMTS13 Activity: 30 Minute Incubation Time: 111 % Normal
Sample FACT lot 1223
  % Normal ADAMTS13 Activity: 30 Minute Incubation Time: 107 % Normal
Sample NPP032206
  % Normal ADAMTS13 Activity: 30 Minute Incubation Time: >Calibrator E
Sample NPP032206 HI
  % Normal ADAMTS13 Activity: 30 Minute Incubation Time: 9 % Normal
Sample NPP032206 at 37C
  % Normal ADAMTS13 Activity: 30 Minute Incubation Time: 106 % Normal
Sample NPP032206 mixed
  % Normal ADAMTS13 Activity: 30 Minute Incubation Time: 57 % Normal
Sample Positive Control High
  % Normal ADAMTS13 Activity: 30 Minute Incubation Time: 50 % Normal
Sample Positive Control Low
  % Normal ADAMTS13 Activity: 30 Minute Incubation Time: 14 % Normal
Sample UAMS041609
  % Normal ADAMTS13 Activity: 30 Minute Incubation Time: 31 % Normal
Sample VF040901
  % Normal ADAMTS13 Activity: 30 Minute Incubation Time: 10 % Normal
Sample Calibrator A, 15 min
  Increase in Fluorescence Values (X minute - 0 minute Reading): 676 RFU
Sample Calibrator A, 30 min
  Increase in Fluorescence Values (X minute - 0 minute Reading): 843 RFU
Sample Calibrator A, 45 min
  Increase in Fluorescence Values (X minute - 0 minute Reading): 921 RFU
Sample Calibrator A, 60 min
  Increase in Fluorescence Values (X minute - 0 minute Reading): 1,166 RFU
Sample Calibrator A, 75 min
  Increase in Fluorescence Values (X minute - 0 minute Reading): 1,013 RFU
Sample Calibrator A, 90 min
  Increase in Fluorescence Values (X minute - 0 minute Reading): 959 RFU
Sample Calibrator A, incubation 15 Minutes
  % Normal ADAMTS13 Values Calculated Using GTI_FRET4 Substrate: 1 % Normal
Sample Calibrator A, incubation 30 Minutes
  % Normal ADAMTS13 Values Calculated Using GTI_FRET4 Substrate: 1 % Normal
Sample Calibrator A, incubation 45 Minutes
  % Normal ADAMTS13 Values Calculated Using GTI_FRET4 Substrate: 0 % Normal
Sample Calibrator A, incubation 60 Minutes
  % Normal ADAMTS13 Values Calculated Using GTI_FRET4 Substrate: 0 % Normal
Sample Calibrator A, incubation 75 Minutes
  % Normal ADAMTS13 Values Calculated Using GTI_FRET4 Substrate: 0 % Normal
Sample Calibrator A, incubation 90 Minutes
  % Normal ADAMTS13 Values Calculated Using GTI_FRET4 Substrate: 0 % Normal
Sample Calibrator B, 15 min
  Increase in Fluorescence Values (X minute - 0 minute Reading): 1,765 RFU
Sample Calibrator B, 30 min
  Increase in Fluorescence Values (X minute - 0 minute Reading): 3,000 RFU
Sample Calibrator B, 45 min
  Increase in Fluorescence Values (X minute - 0 minute Reading): 4,164 RFU
Sample Calibrator B, 60 min
  Increase in Fluorescence Values (X minute - 0 minute Reading): 5,358 RFU
Sample Calibrator B, 75 min
  Increase in Fluorescence Values (X minute - 0 minute Reading): 6,468 RFU
Sample Calibrator B, 90 min
  Increase in Fluorescence Values (X minute - 0 minute Reading): 7,581 RFU
Sample Calibrator B, incubation 15 Minutes
  % Normal ADAMTS13 Values Calculated Using GTI_FRET4 Substrate: 7 % Normal
Sample Calibrator B, incubation 30 Minutes
  % Normal ADAMTS13 Values Calculated Using GTI_FRET4 Substrate: 7 % Normal
Sample Calibrator B, incubation 45 Minutes
  % Normal ADAMTS13 Values Calculated Using GTI_FRET4 Substrate: 7 % Normal
Sample Calibrator B, incubation 60 Minutes
  % Normal ADAMTS13 Values Calculated Using GTI_FRET4 Substrate: 7 % Normal
Sample Calibrator B, incubation 75 Minutes
  % Normal ADAMTS13 Values Calculated Using GTI_FRET4 Substrate: 6 % Normal
Sample Calibrator B, incubation 90 Minutes
  % Normal ADAMTS13 Values Calculated Using GTI_FRET4 Substrate: 6 % Normal
Sample Calibrator C, 15 min
  Increase in Fluorescence Values (X minute - 0 minute Reading): 6,178 RFU
Sample Calibrator C, 30 min
  Increase in Fluorescence Values (X minute - 0 minute Reading): 11,701 RFU
Sample Calibrator C, 45 min
  Increase in Fluorescence Values (X minute - 0 minute Reading): 16,807 RFU
Sample Calibrator C, 60 min
  Increase in Fluorescence Values (X minute - 0 minute Reading): 21,705 RFU
Sample Calibrator C, 75 min
  Increase in Fluorescence Values (X minute - 0 minute Reading): 26,685 RFU
Sample Calibrator C, 90 min
  Increase in Fluorescence Values (X minute - 0 minute Reading): 32,209 RFU
Sample Calibrator C, incubation 15 Minutes
  % Normal ADAMTS13 Values Calculated Using GTI_FRET4 Substrate: 32 % Normal
Sample Calibrator C, incubation 30 Minutes
  % Normal ADAMTS13 Values Calculated Using GTI_FRET4 Substrate: 33 % Normal
Sample Calibrator C, incubation 45 Minutes
  % Normal ADAMTS13 Values Calculated Using GTI_FRET4 Substrate: 33 % Normal
Sample Calibrator C, incubation 60 Minutes
  % Normal ADAMTS13 Values Calculated Using GTI_FRET4 Substrate: 34 % Normal
Sample Calibrator C, incubation 75 Minutes
  % Normal ADAMTS13 Values Calculated Using GTI_FRET4 Substrate: 35 % Normal
Sample Calibrator C, incubation 90 Minutes
  % Normal ADAMTS13 Values Calculated Using GTI_FRET4 Substrate: 36 % Normal
Sample Calibrator D, 15 min
  Increase in Fluorescence Values (X minute - 0 minute Reading): 10,887 RFU
Sample Calibrator D, 30 min
  Increase in Fluorescence Values (X minute - 0 minute Reading): 20,626 RFU
Sample Calibrator D, 45 min
  Increase in Fluorescence Values (X minute - 0 minute Reading): 29,206 RFU
Sample Calibrator D, 60 min
  Increase in Fluorescence Values (X minute - 0 minute Reading): 37,289 RFU
Sample Calibrator D, 75 min
  Increase in Fluorescence Values (X minute - 0 minute Reading): 44,543 RFU
Sample Calibrator D, 90 min
  Increase in Fluorescence Values (X minute - 0 minute Reading): 53,613 RFU
